US20240327506A1, “METHODS AND COMPOSITION FOR THE SELECTIVE ENHANCEMENT OF ADOPTIVE CELL THERAPY” (MaineHealth, priority 2023, published 2024)

Molecular target: T1, β3 integrin (Mus musculus, UniProt O54890+P43406)
T1 construct: we isolated primary CD8+ T-cells from melanoma bearing mice; endogenous in cells; host or cells: primary CD8+ T-cells isolated from melanoma bearing mice
T1 sequence (O54890 26-787): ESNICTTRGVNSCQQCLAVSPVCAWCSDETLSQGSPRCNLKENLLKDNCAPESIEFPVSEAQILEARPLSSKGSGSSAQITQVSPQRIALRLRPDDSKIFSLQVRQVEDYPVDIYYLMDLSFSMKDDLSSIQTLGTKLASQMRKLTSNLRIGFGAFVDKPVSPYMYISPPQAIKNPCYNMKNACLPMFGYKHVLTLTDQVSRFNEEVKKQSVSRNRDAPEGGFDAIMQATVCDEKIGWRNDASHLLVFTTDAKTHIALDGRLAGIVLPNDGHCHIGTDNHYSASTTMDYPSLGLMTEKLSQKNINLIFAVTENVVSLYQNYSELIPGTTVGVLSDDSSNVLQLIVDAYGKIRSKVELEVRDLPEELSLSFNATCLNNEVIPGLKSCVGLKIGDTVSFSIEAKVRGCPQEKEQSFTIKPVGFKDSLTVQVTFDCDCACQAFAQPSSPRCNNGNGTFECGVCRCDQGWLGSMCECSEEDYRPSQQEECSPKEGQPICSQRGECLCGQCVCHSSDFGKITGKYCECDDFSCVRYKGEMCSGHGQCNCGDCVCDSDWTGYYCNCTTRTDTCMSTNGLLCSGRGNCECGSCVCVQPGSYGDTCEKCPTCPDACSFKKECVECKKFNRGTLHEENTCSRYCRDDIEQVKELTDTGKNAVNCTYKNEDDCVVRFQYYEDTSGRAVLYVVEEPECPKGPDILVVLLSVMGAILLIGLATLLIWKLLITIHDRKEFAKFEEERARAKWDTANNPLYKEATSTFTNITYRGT
T1 sequence (P43406 31-885 limits assumed): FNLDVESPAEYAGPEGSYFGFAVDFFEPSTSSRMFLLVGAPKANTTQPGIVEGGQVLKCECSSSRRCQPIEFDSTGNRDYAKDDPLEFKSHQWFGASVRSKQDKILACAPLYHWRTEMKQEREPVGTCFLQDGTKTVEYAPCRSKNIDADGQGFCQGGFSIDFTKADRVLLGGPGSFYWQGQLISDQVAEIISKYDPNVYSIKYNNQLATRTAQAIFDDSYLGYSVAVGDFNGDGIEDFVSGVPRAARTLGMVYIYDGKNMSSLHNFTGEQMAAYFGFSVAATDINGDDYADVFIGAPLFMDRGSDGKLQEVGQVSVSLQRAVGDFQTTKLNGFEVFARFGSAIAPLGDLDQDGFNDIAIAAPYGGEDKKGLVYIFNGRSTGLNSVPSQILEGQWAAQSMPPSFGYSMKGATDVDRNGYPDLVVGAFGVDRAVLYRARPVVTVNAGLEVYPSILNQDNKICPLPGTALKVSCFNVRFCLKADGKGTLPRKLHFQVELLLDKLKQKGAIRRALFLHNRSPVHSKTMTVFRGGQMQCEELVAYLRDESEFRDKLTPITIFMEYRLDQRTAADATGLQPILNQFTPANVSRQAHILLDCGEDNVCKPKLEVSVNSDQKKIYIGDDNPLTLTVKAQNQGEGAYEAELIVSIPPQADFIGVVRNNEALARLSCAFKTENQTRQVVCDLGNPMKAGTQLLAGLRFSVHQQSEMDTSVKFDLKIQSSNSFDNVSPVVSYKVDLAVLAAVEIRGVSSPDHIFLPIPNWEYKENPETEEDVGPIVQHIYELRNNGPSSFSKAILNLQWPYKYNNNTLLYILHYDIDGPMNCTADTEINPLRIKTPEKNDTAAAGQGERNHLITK
T1 sequence (P43406 887-1044 partner limits assumed): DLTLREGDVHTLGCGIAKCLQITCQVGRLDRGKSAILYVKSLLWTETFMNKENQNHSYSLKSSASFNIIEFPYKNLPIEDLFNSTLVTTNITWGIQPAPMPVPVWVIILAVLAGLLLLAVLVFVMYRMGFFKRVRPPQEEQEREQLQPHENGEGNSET
Assay: Western blot of β3 integrin phosphorylation in primary CD8+ T-cells after peptide stimulation
Format: cell-based, murine
Conditions: primary CD8+ T-cells from melanoma bearing mice, compared to control peptide CP
Procedure: FIGS. 2A-2F. Detection of RGDKGE (SEQ ID NO: 1)-containing collagen peptide in malignant tumor cells and expression of key signaling molecules in T-cells. Briefly, whole cell lysates and serum free concentrated conditioned medium was prepared from tumor cells lines. FIG. 2A. Western blot analysis of whole cell lysates from human C8161 and murine B16F10 melanoma cells for the expression of the low molecular weight 16 kDa RGDKGE (SEQ ID NO: 1)-containing collagen peptide (XL313) or actin as a loading control. FIG. 2B. […]
Whole cell and CAM tissue lysates were collected in RIPA buffer (10 mM Tris-HCl, pH 8.0; 1 mM EDTA; 0.5 mM EGTA; 1% Triton X-100; 0.1% Sodium Deoxycholate; 0.1% SDS; 140 mM NaCl) supplemented with 1× protease inhibitor and 1× phosphatase inhibitor and were run on polyacrylamide gels using denaturing conditions. […] Western blot bands were quantified using Image J software based on pixel intensity.
We previously made the surprising observation that a small bioactive collagen peptide containing the core amino acid sequence RGDKGE (SEQ ID NO: 1) could be generated inside a subset of M2-like activated macrophages as well as a variety of other malignant tumor cells, and then actively secreted outside the cells (11-13). Importantly, minimal levels of this soluble collagen peptide was detected in normal cells (13). […]

β3 integrin phosphorylation: enhanced β3 integrin phosphorylation
Sequence: QGPRGDKGE (CQGPRGDKGEC; Synthetic: Synthetic collagen RGD containing peptide P-2) [Peptide P2, synthetic version of the soluble RGDKGE-containing collagen peptide]
